In patent US20210292423A1 (published 2021):
Where a chain is given by its changes, count along the chain named.

B1: CODV-Fab 7G3 × 20G6 with humanized 20G6 VL1C_VH1D (bispecific antibody)
light: DIVMTQTPLSLSVTPGQPASISCKSSQSLVHNNANTYLSWYLQKPGQSPQSLIYKVSNRFSGVPDRFSGSGSGTDFTLKISRVEAEDVGVYYCGQGTQYPFTFGSGTKVEIKGQPKAAPDFVMTQSPSSLTVTAGEKVTMSCKSSQSLLNSGNQKNYLTWYLQKPGQPPKLLIYWASTRESGVPDRFTGSGSGTDFTLTISSVQAEDLAVYYCQNDYSYPYTFGGGTKLEIKTKGPSRTVAAPSVFIFPPSDEQLKSGTASVVCLLNNFYPREAKVQWKVDNALQSGNSQESVTEQDSKDSTYSLSSTLTLSKADYEKHKVYACEVTHQGLSSPVTKSFNRGEC
heavy: EVQLQQSGPELVKPGASVKMSCKASGYTFTDYYMKWVKQSHGKSLEWIGDIIPSNGATFYNQKFKGKATLTVDRSSSTAYMHLNSLTSEDSAVYYCTRSHLLRASWFAYWGQGTLVTVSASQVQLVESGGGVVQPGRSLRLSCAASGFTFTKAWMHWVRQAPGKQLEWVAQIKDKSNSYATYYADSVKGRFTISRDDSKNTLYLQMNSLRAEDTAVYYCRGVYYALSPFDYWGQGTLVTVSSRTASTKGPSVFPLAPSSKSTSGGTAALGCLVKDYFPEPVTVSWNSGALTSGVHTFPAVLQSSGLYSLSSVVTVPSSSLGTQTYICNVNHKPSNTKVDKKVEPKSCDKTHTHHHHHH
B2: CODV-Fab 7G3 × 20G6 with humanized 20G6 VL1D_VH1C (bispecific antibody)
light: B1 light with A34G
heavy: B1 heavy with D185A
B3: CODV-Fab 7G3 × 20G6 with humanized 20G6 VL1D_VH1D (bispecific antibody)
light: B1 light with A34G
heavy: B1 heavy
notes: same V domains as hz20G6x7G3 but the other order
B4: 11F9-F8 anti-CD3 antibody (hybridoma supernatant) (antibody, V domains shown)
VH: EVQLVETGGTLVQPGKSLKLTCATSGFTFSNAWMHWVRQSPEKQLEWVAQIKAKSNNYATYYAESVKGRFTISRDDSKTSVYLQLNSLREEDTAIYYCRGTQYGYNPFDYWGQGVMVTVSS
VL: DVVLTQTPVSLSVSLGGQVSISCRSSQSLVHNNGNTYLSWSLQKPGQSPQVLIYKVSNRFSGISNRFSGSGSGTDFTLKISRVEPDDLGVYYCGQGAHYPFTFGSGTKLEIK
notes: rat IgG in hybridoma supernatant
B5: 11F3-B9 anti-CD3 antibody (hybridoma supernatant) (antibody, V domains shown)
VH: EVQLVETGGSLVQPGKSLTLTCATSGFTFSNAWMHWVRQSPEKQLEWVAQIKAKSNNYATYYAESVKGRFTISRDDSKRSVYLQMNSLKEEDTAIYYCRYVNYGLAPMDVWGQGTSVTVSS
VL: B4 VL with L4M, N32D, S41Y, V51L, I63F, N65D, A97T, H98Q, S105A, I111L
notes: as for B4
B6: 4B4-D7 anti-CD3 antibody (hybridoma supernatant) (antibody, V domains shown)
VH: EVQLVETGGRLVQPGRSLKLTCATSGFTFSNAWMHWVRQSPEKQLEWVAQIKARSNNYATYYAESVKGRFTISRDDSKSTIYLQMNSLKEEDTAIYYCRGTYYASKPFDYWGQGVMVTVSS
VL: B4 VL with L4M, N32D, K44R, I63T, N65D, S68T, A97T, H98Q
notes: as for B4
B7: 20E5-F10 anti-CD3 antibody (hybridoma supernatant) (antibody, V domains shown)
VH: EVQLVETGENLVQPGKSLRLTCATSGFSFSNAWMHWIRQSPEKQLEWVAQIKDKSNNYATYYAESVNGRFTISRDDSKSSIYLHMDNLKEEDSAIYYCRYVHYGVRFFYTMDVWGQGTSVTVSS
VL: B4 VL with L4M, G17D, S25P, S41Y, Q50H, V51P, N65D, A97T, H98Q
notes: as for B4
B8: 4E7-C9 anti-CD3 antibody (hybridoma supernatant) (antibody, V domains shown)
VH: EVQVVETGGSLVQPGKSLKLTCATSGFTFSNAWMHWVRQSPEKQLEWVAQIKDKSNNYATYYAESLKGRFTISRDDPKRSIYLQMNSLREEDTAIYYCRYVHYGIGYAMDAWGQGTSVTVSS
VL: B4 VL with L4M, V30E, S41Y, V51P, N65D, A97T, H98Q, S105P, I111L
notes: as for B4
B9: 12G3-E8 anti-CD3 antibody (hybridoma supernatant) (antibody, V domains shown)
VH: EVRVVETGGSLVQPGKSLKLTCATSGFTFSLAWMHWVRQSPEKKLEWVAQIKDKANNYATYYAESVKGRFTISRDDSKRSVYLQMNRLKEEDTAIYYCRGVYYGFSMTPFDYWGQGVMVTVSS
VL: B4 VL with V3A, L4M, S41Y, N65D, T74A, A97T, H98Q, S105A, I111L
notes: as for B4
B10: 10E6-G6 anti-CD3 antibody (hybridoma supernatant) (antibody, V domains shown)
VH: B4 VH with T10G, P14S, F29V, S30T, A59E, T79S, L85M, R89K
VL: B4 VL with L4M, T7S, N35Y, S41Y, L52F, N65D, V83I, A97T
notes: as for B4
B11: 11D7-C3 anti-CD3 antibody (hybridoma supernatant) (antibody, V domains shown)
VH: EVQFVETGGSLVQPGKSLKLTCATSGFTFSNAWMHWVRQSPEKQLEWVAQIKAKSNNYATYYAESVKGRFTISRDDSKSSVYLQMNSLKEEDTATYYCRGLYYGLSPSDYWGQGVMVTVSS
VL: B4 VL with L4M, S41Y, V51L, N65D, A97T
notes: as for B4
B12: 10F4-C10 anti-CD3 antibody (hybridoma supernatant) (antibody, V domains shown)
VH: B11 VH with F4L, L20I, V81I, T95I, G100A, L101V, Y102N, L105N, S106Y, S108L
VL: B4 VL with L4M, S41C, V51L, N65D, A97T, H98Q, S105A, I111L
notes: as for B4
B13: 13C1-F6 anti-CD3 antibody (hybridoma supernatant) (antibody, V domains shown)
VH: B4 VH
VL: DVVMTQSPVSLSVSLGGQVSISCRSSQSLVHNNGNTYLSWYLQRSGQSPQLLIYKVSNRLSGISDRFSGSGSGTDFTLKISRIEPDDLGVYYCGQGTQYPFTFGSGTRLEIK
notes: as for B4
B14: 6C9-C9 anti-CD3 antibody (hybridoma supernatant) (antibody, V domains shown)
VH: AVQLVESGGGLVRPKESLKISCAASGFTFRNAAMYWVRQAPGKGLEWVARIRTQPNNYAKYYADSVKDRFTISRDDSKSMVYLQMDNLKTEDTAMYYCTGLVVTAMDAWGQGTSVTVSS
VL: DIQMTQSPSFLSASVGDRVTINCKASQNINKYLNWYQQKLGEAPKLLIYVTNNLQTGIPSRFSGSGSGTDYTLTISSLQPEDVATYFCLQHRSMYTFGTGTKLELK
notes: as for B4
B15: 18H11-F10 anti-CD3 antibody (hybridoma supernatant) (antibody, V domains shown)
VH: EVQLVESGGGLVQPGRSLKLSCAASGFIFSDYYMAWVRQAPKKGLEWVATISISGSRTYYPDSVKGRFTVSRDNAKSSLYLQMNSLKSEDTATYYCATNNPGGWFVYWGQGTLVTVSS
VL: NIQMTQSPSLLSASVGDRVTLSCKAGQNINNDLAWYQQKLGEAPRLLIYNANSLQTGIPSRFSGSGSGADFTLTISSLQPEDVATYFCQQYSSGDTFGAGTKLELK
notes: as for B4
B16: 13H2-C3 anti-CD3 antibody (hybridoma supernatant) (antibody, V domains shown)
VH: B5 VH with V2E, Q3E, T19K, E42D, R79S, S87N, N102H, V110A
VL: B13 VL with S7T, R44K, S45A, L60F, T77I, I83V, Y91F, S105A, R108K, I111L
notes: rat IgG in hybridoma supernatant; also called 13H2-C2
B17: 8H2-F3 anti-CD3 antibody (hybridoma supernatant) (antibody, V domains shown)
VH: QIQLVQSGPELKKPGESVKISCKASGYTFTDFAMNWVKQAPGNGLKWMGWINTQTGKPTYADGFKQRFVFSLETSASTIYLQINNLNIEDTATYFCTRGALASVGQGVMVTVSS
VL: DVVMTQTPVSLSVAIGQPASISCKSSQSLVGTSGKTYLNWLLQRPGQSPKRLIYLVSKLDSGIPDRFSGSGSETDFTLKISRVETDDLGVYYCLQGSHFPLTFGSGTKLEIK
notes: as for B4

These binders were tested against T1, human CD3ε/δ-Fc fusion protein (soluble recombinant CD3ε/δ complex) (human, UniProt P04234 22-105) (assay: SPR Biacore, CODV-Fab on recombinant CD3ε/δ).
T1 construct: also called huCD3ε/δ; huCD3; not shown: hinge, CH2, CH3 of human IgG with tag
Procedure: Binding affinities of anti-CD3 binding Fabs or CODV-Fabs were measured by surface plasmon resonance (SPR) using a Biacore3000 instrument (GE Healthcare). Assay buffer was HBS-EP (BR-1001-88, GE Healthcare). Capture of CD3ε/δ-Fc fusion proteins was achieved using the human antibody capture kit (GE Healthcare). […] The CD3εδ-Fc fusions proteins were captured at 10 μl/min to approx. 70 RU to yield Rmax values of 30 RU. Binding kinetics with the anti-CD3 Fabs or CODV-Fabs was measured at 30 μl/min for 240 sec. and 600 sec. for association and dissociation phase, respectively. Twofold dilutions of Fabs from 3 to 400 nM in assay buffer were used. All Fab concentrations were run in duplicate together with duplicate buffer blanks for double referencing. Regeneration of the capture surface was performed with a 1 min injection of 3M MgCl2 solution at 30 μl/min. For data analysis the BIAevaluation software v.4.1 (GE Healthcare) was used. Data were fit globally using a 1:1 Langmuir model with mass transfer.

T1 sequence (chain, as listed by the source mutant, chain 1 of 2): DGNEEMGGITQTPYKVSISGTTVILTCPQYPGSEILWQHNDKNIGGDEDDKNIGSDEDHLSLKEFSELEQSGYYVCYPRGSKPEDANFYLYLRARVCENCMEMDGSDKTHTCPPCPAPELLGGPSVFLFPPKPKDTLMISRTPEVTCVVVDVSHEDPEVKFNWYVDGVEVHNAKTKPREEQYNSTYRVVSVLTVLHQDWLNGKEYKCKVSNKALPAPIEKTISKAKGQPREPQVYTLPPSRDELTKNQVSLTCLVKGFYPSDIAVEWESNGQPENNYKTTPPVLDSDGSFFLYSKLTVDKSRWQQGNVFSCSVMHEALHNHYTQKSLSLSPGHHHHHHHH
T1 sequence (P04234 22-105, stated change not applied, chain 2 of 2): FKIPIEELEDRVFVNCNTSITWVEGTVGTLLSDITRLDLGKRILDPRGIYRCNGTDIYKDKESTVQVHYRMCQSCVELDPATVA

Kd [nM] | koff [s⁻¹] | kon [M⁻¹ s⁻¹] | Binder
44 | 0.00101 | 23000 | B1
32.1 | 0.000713 | 22200 | B2
31 | 0.000746 | 24000 | B3

Each binder was assayed against T1, human CD3ε/δ-Fc fusion protein (soluble …) (assay: SPR single point, hybridoma supernatant).
Procedure: Rats with positive sera were scarified and B cells were fused with mouse myeloma cells. The resulting hybrndomas were screened on HEK293 cells transfected with human or cynomoligus CD3ε and CD3δ expression plasmids, on Jurkat E6.1 (CD3+) and Jurkat T3.5 (CD3-) by flow cytometry. Supernatant of Hybridoma clones was used to assess by surface plasmon resonance single point kinetic against human and Macaca fascicularis CD3ε/δ complex by fixing the analyte at 25 nM (data presented in table 3).

RU at 25 nM [RU] | Binder
11.5 | B4
22 | B5
11 | B6
12 | B7
2.5 | B8
24 | B9
10.5 | B10
17 | B11
22 | B12
17 | B13
26 | B14
35 | B15
16 | B16
32.5 | B17
